The record followed here is patent publication USRE41461E1, “Purification, composition and specificity of Heparinase I, II, and III from Flavobacterium heparinum” (Massachusetts Institute of Technology, priority 1992, dated 2010).

“Also recorded” adds a separate entry of the source. Read-outs that look alike come from different tables or passages of the source.

Data set [1] is described as follows: Heparin lyase activity assay (change of absorbance at 232 nm), heparan sulfate as substrate. It is filed as biochemical. The method, then:
The spectrophotometer was adjusted to the optimum temperature of the particular lyase being assayed. […] A measured quantity of lyase was added, bringing the final volume to 400 μl and the cuvette was gently mixed. The microcuvette was then immediately returned to the spectrophotometer and the change of absorbance at 232 nm was measured at 10 seconds intervals over 3 min. […] The specific activity was then calculated by dividing the micromoles of product produced per minute by the milligrams of protein in the cuvette. […] G., and Linhardt, R. J. (1989) Carbohydr. Res. 190, 219-233. Protein concentration was measured by the Bradford assay, Bradford, M. M. (1976) Anal. Biochem. 72, 248-254, based on a bovine serum albumin standard curve. […] The activities of each lyase (I acting on heparin, II acting on both heparin and heparan sulfate, and III acting on heparan sulfate) were then determined at different pH values. The buffer giving optimum activity for each heparin lyase was selected by testing buffers with buffering capacity near the pH optima calculated in the previous experiments. These buffers were: Tris-HCl, sodium phosphate, HEPES, MOPS, TES, and BTP-CHl. […] The heparin lyase assay solutions were made by diluting enzyme in 50 mM sodium phosphate buffer adjusted to the appropriate pH as previously described. Heparin lyase activity was determined in each buffer. Activity was assayed both immediately after addition to each buffer and following incubation for 24 h at 37° C. The salt concentration for optimum activity was investigated. Sodium chloride, potassium chloride, and sodium and potassium acetate were used to differentiate between ionic strength and specific ion affects. […] The temperature was adjusted in a temperature-regulated spectrophotometer and equilibrated for 10 min before the assay was started. Michaelis-Menten constants were determined using the optimized conditions. The final absorbance value for total depolymerization was divided by 20 to find a value that represented 5% reaction completion. The purified lyase preparations were diluted so that 5% of total depolymerization would be reached only at the end of a 3-min assay. The reaction velocities at specific molar concentrations for each lyase and their substrates were used for kinetic analysis using EZ-FIT hyperbolic curve-fitting program of […]. (1988) Anal. Biochem. 174, 437-447). Substrate solutions were prepared from 50 mg/ml heparin and 40 mg/ml for heparan sulfate stock solutions. […] The amount of purified lyase used was sufficient for complete depolymerization of heparin or heparan sulfate substrates within 30 min. The initial rate of depolymerization of each polysaccharide was measured, the reaction was then continued for 24 h, and the final level of polysaccharide depolymerization was assessed by measuring the final absorbance at 232 nm and expressed as percent activity.

A short description of data set [2]: Heparin lyase activity: effect of divalent metals and added salt, substrate specificity (each lyase on its substrates). It is filed as biochemical. The following applies: for effect of added salt on activity: increasing salt concentration, 0-500 mM. The method, then:
The spectrophotometer was adjusted to the optimum temperature of the particular lyase being assayed. A 700 μl quartz microcuvette containing 400 μg of substrate in 50 mM sodium phosphate buffer (containing 100 mM sodium chloride for heparin lyase I) was thermally equilibrated. A measured quantity of lyase was added, bringing the final volume to 400 μl and the cuvette was gently mixed. The microcuvette was then immediately returned to the spectrophotometer and the change of absorbance at 232 nm was measured at 10 seconds intervals over 3 min. The activity was measured from the change of absorbance/unit time using an extinction coefficient of 3800 M^−1 for products. The specific activity was then calculated by dividing the micromoles of product produced per minute by the milligrams of protein in the cuvette. The molecular weights used for heparin, heparan sulfate, and the chondroitin sulfates were 14,000, 20,000 and 25,000, respectively, Rice, K. G., and Linhardt, R. J. (1989) Carbohydr. Res. 190, 219-233. Protein concentration was measured by the Bradford assay, Bradford, M. M. (1976) Anal. Biochem. 72, 248-254, based on a bovine serum albumin standard curve.
BTP-HCl buffer (50 mM) was prepared containing either 10 mM calcium chloride, 10 μM or 1 mM copper (II) chloride, 10 μM and 1 mM mercury (II) chloride, and 1 mM zinc (II) chloride. Each solution was adjusted to the optimum pH for the lyase being tested, and the activity of the heparin lyases was measured in the presence and absence of divalent metals.
The salt concentration for optimum activity was investigated. Sodium chloride, potassium chloride, and sodium and potassium acetate were used to differentiate between ionic strength and specific ion affects. Added salt concentrations varied between 0 and 500 mM and were prepared in 50 mM sodium phosphate buffer after which the pH was adjusted to each enzyme's optimum and the heparin lyase activity was measured.
Each heparin lyase was added to a solution of complex polysaccharides (1 mg/ml) under optimized assay conditions, and the reaction was monitored at 232 nm for 30 min. The amount of purified lyase used was sufficient for complete depolymerization of heparin or heparan sulfate substrates within 30 min. The initial rate of depolymerization of each polysaccharide was measured, the reaction was then continued for 24 h, and the final level of polysaccharide depolymerization was assessed by measuring the final absorbance at 232 nm and expressed as percent activity.

Data set [3] in a line: Isoelectric focusing on agarose gel. In kind it is physicochemical. As to conditions: agarose IEF. The method, then:
IEF gel electrophoresis was run on pre-cast agarose gels (85×100 mm). Two electrode wicks were wetted with 1M phosphoric acid (anolyte) and 1M sodium hydroxide (catholyte). Electrophoresis was at 5 watts for 5 min, then at 10 watts for 1 h until the voltage was constant at 1200 V. The gel was immediately fixed in 15% aqueous trichloroacetic acid, blotted and rinsed with water, dried overnight, stained by using Coomassie G-250, and destained.

The nature of data set [4]: Temperature stability of lyase activity. In kind it is physicochemical. The following applies: 25 h at 35° C., protein 1-2 μg/ml, on both heparin and heparan sulfate. The method, then: Lyase assay stock solutions were prepared in the appropriate buffer and placed in water baths at the following temperatures: heparin lyase I at 30° C., heparin lyase II at 35° C., and heparin lyase III at both 35° and 40° C. […]

Data set [5] can be described thus: Activity remaining after incubation in buffers for 24 h at 37° C. It is filed as physicochemical. The following applies: MOPS, TES, and HEPES, toward both heparin and heparan sulfate. The procedure:
The buffer giving optimum activity for each heparin lyase was selected by testing buffers with buffering capacity near the pH optima calculated in the previous experiments. These buffers were: Tris-HCl, sodium phosphate, HEPES, MOPS, TES, and BTP-CHl. Each buffer was prepared at 50 mM, and its pH was adjusted with hydrochloric acid or sodium hydroxide to 6.9 for heparin lyase II acting on heparin, 7.15 for heparin lyase I, 7.3 for heparin lyase II acting on heparan sulfate, and 7.6 for heparin lyase III. The heparin lyase assay solutions were made by diluting enzyme in 50 mM sodium phosphate buffer adjusted to the appropriate pH as previously described. Heparin lyase activity was determined in each buffer. Activity was assayed both immediately after addition to each buffer and following incubation for 24 h at 37° C.

B1: Heparin lyase II: heparin lyase II (heparinase II, no EC number) purified to homogeneity from Flavobacterium heparinum (protein, UniProt C6XZB6 26-772, looked up)
Heparin and heparin-sulfate …: QTKADVVWKDVDGVSMPIPPKTHPRLYLREQQVPDLKNRMNDPKLKKVWADMIKMQEDWKPADIPEVKDFRFYFNQKGLTVRVELMALNYLMTKDPKVGREAITSIIDTLETATFKPAGDISRGIGLFMVTGAIVYDWCYDQLKPEEKTRFVKAFVRLAKMLECGYPPVKDKSIVGHASEWMIMRDLLSVGIAIYDEFPEMYNLAAGRFFKEHLVARNWFYPSHNYHQGMSYLNVRFTNDLFALWILDRMGAGNVFNPGQQFILYDAIYKRRPDGQILAGGDVDYSRKKPKYYTMPALLAGSYYKDEYLNYEFLKDPNVEPHCKLFEFLWRDTQLGSRKPDDLPLSRYSGSPFGWMIARTGWGPESVIAEMKVNEYSFLNHQHQDAGAFQIYYKGPLAIDAGSYTGSSGGYNSPHNKNFFKRTIAHNSLLIYDPKETFSSSGYGGSDHTDFAANDGGQRLPGKGWIAPRDLKEMLAGDFRTGKILAQGFGPDNQTPDYTYLKGDITAAYSAKVKEVKRSFLFLNLKDAKVPAAMIVFDKVVASNPDFKKFWLLHSIEQPEIKGNQITIKRTKNGDSGMLVNTALLPDAANSNITSIGGKGKDFWVFGTNYTNDPKPGTDEALERGEWRVEITPKKAAAEDYYLNVIQIADNTQQKLHEVKRIDGDKVVGVQLADRIVTFSKTSETVDRPFGFSVVGKGTFKFVMTDLLPGTWQVLKDGKILYPALSAKGDDGALYFEGTEGTYRFLR
As to B1, in data set [1], the “initial rate on heparan sulfate relative to heparin” value was 1.7 times. Also, the “Unit/mg (specific activity)” value in data set [1] (final GPC-HPLC purification step, acting on heparan sulfate) came out at 36.5 Unit/mg. The “average number of sites acted at in the heparan sulfate polymer” value in data set [1] (final level of depolymerization, 24 h) amounted to 25 sites. For the same molecule, in data set [1] (heparan sulfate, 50 mM buffer at optimum pH), the “initial activity in six buffers (Tris-HCl, sodium phosphate, HEPES, MOPS, TES, BTP-HCl)” value is “marked reduction of activity in MOPS, TES, and HEPES”. Also, the “temperature for maximum activity” value in data set [1] (heparan sulfate, 50 mM sodium phosphate at optimum pH, 15-55° C.) amounted to 40 °C. Besides, the Km – broadly, the substrate concentration at which the rate is half of its maximum – in data set [1] (heparan sulfate, II: 35° C., pH 6.9, III: 35° C., pH 7.6, value ± standard error, read-out: Km(app)) came to 11.2 ± 2.18 µM; in data set [1] (with heparan sulfate, read-out: Km (Michelis-Menton constant, summary)), 43.4 µM. The “optimum temperature (summary)” value in data set [1] (heparan sulfate, activity greater at higher temperatures but stability reduced) is 35 °C. Besides, the Vmax in data set [1] (heparan sulfate, optimized conditions, value ± standard error) is 28.6 ± 1.26 μmol/min mg protein. Also, the “pH optimum for activity” value in data set [1] (on heparan sulfate) was found to be 6.9. Also, the specific activity in data set [1] (purified lyase, toward heparan sulfate) was 36.5 units/mg. The “Km (Michelis-Menton constant, summary)” value in data set [1] (with heparan sulfate) stood at 0.869 mg/mL. Also, the “V(max) (summary)” value in data set [1] (with heparan sulfate) turned out to be 46.95. Moreover, the substrates acted on entry in data set [2] is “act on both heparin and heparan sulfate”. Also, the “effect of calcium on activity (increase)” value in data set [2] (10 mM calcium chloride, 50 mM BTP-HCl) is recorded as “dramatically reduced”. In addition, in data set [2] (acting on both heparin and heparan sulfate), the “effect of divalent metal ions on activity (all metals tested)” value is reported as “inhibition by all of the metals tested except for 10 μM copper”. Besides, the “effect of added salt on activity” value in data set [2] is “decrease in activity; also recorded: decreases”; in data set [2] (listed as heparinase II), “not observed”. In addition, the “pI (isoelectric point)” value in data set [3] is on record as “around 8.9”; in data set [3] (listed as heparin lyase II) it was 8.9-9.1. In data set [4], this molecule came in with an activity retained of 70%. In addition, the “retention of activity after incubation” value in data set [5] is given as 30-70%.
